US20210238260A1 (published 2021)

T1: Factor VIIIa (FVIIIa), from recombinant FVIII (Kogenate FS; Bayer healthcare) activated with alpha-thrombin (UniProt P00451 20-2351)
T1 sequence (looked up): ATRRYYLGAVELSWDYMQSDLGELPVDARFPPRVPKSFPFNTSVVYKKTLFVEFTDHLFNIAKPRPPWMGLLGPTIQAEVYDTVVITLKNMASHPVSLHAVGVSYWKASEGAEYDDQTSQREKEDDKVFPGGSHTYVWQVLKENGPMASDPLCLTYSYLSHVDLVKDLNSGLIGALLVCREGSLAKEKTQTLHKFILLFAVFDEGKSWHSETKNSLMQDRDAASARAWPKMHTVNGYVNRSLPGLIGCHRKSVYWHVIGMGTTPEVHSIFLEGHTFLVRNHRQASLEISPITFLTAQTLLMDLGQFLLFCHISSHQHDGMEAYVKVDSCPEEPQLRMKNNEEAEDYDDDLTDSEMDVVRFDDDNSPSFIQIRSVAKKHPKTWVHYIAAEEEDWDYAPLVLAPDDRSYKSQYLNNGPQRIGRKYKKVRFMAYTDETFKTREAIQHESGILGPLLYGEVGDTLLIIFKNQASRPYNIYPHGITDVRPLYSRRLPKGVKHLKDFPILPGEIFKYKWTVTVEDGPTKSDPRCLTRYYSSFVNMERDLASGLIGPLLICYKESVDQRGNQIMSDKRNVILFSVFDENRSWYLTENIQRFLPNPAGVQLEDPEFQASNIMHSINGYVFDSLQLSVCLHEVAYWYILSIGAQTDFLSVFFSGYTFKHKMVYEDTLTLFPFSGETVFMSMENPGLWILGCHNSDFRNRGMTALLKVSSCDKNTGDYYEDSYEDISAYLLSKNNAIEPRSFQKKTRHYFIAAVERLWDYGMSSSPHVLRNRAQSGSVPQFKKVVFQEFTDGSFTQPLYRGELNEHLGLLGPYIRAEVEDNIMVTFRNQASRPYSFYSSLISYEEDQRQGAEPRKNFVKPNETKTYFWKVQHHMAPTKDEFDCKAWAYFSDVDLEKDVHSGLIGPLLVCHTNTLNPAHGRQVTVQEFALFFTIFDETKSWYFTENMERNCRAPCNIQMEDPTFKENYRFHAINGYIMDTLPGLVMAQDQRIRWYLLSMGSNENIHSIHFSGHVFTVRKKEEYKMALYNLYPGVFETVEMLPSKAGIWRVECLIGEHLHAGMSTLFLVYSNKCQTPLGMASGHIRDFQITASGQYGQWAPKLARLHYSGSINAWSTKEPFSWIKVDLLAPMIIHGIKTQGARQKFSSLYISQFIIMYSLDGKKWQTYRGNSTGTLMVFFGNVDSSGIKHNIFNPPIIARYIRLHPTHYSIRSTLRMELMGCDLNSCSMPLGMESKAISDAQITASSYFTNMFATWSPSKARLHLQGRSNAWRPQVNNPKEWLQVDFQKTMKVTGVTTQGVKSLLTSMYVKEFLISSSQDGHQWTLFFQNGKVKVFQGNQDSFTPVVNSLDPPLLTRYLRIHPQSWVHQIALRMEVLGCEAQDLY

T2: Factor VIIIa (recombinant FVIII, Kogenate FS, activated with alpha-thrombin) (UniProt P00451 20-2351)
T2 construct: also called FVIIIa
T2 sequence (looked up): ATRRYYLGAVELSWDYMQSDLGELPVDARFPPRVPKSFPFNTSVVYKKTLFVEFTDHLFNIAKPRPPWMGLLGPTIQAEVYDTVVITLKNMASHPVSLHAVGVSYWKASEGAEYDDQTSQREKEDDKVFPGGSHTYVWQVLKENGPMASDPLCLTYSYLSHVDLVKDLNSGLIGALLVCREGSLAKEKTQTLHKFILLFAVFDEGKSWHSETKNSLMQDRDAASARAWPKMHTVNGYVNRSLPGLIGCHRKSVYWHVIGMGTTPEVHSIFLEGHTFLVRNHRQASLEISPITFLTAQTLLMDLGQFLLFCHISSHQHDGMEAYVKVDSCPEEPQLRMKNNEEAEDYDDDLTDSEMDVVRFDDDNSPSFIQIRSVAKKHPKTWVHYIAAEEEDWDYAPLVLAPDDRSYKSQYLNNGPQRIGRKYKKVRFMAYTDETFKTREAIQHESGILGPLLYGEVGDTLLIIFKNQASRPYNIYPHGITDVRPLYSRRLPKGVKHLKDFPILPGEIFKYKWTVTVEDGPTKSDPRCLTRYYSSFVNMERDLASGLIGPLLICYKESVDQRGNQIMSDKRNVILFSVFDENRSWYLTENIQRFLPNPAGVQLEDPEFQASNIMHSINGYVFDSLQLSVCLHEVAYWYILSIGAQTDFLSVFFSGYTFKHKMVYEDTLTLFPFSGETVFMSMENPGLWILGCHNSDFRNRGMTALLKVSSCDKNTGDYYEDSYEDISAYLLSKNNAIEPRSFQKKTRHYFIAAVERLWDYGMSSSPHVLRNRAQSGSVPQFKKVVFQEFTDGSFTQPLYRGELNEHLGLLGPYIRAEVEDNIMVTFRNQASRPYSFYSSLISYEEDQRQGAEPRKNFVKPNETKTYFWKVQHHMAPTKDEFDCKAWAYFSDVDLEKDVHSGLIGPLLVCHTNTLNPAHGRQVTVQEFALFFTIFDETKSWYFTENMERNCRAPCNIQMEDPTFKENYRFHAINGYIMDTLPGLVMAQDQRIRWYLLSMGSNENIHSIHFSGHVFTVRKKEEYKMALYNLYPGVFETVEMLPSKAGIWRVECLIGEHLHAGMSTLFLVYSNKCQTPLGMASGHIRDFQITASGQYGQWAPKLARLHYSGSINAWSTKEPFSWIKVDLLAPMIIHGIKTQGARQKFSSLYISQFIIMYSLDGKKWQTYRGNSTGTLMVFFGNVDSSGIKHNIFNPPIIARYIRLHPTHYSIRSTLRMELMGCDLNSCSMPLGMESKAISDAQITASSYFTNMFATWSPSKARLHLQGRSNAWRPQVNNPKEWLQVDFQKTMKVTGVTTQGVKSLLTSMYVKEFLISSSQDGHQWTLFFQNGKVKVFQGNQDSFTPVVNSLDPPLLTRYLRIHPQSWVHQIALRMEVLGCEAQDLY

B1: FIXa variant K247N/N249S/R318Y/R338E/R403E/E410N (enzyme)
light: YNSGKLEEFVQGNLERECMEEKCSFEEAREVFENTERTTEFWKQYVDGDQCESNPCLNGGSCKDDINSYECWCPFGFEGKNCELDVTCNIKNGRCEQFCKNSADNKVVCSCTEGYRLAENQKSCEPAVPFPCGRVSVSQTSKLTR
heavy: VVGGEDAKPGQFPWQVVLNGKVDAFCGGSIVNEKWIVTAAHCVETGVKITVVAGEHNIEETEHTEQNRSVIRIIPHHNYNAAINKYNHDIALLELDEPLVLNSYVTPICIADKEYTNIFLKFGSGYVSGWGRVFHKGYSALVLQYLRVPLVDRATCLESTKFTIYNNMFCAGFHEGGRDSCQGDSGGPHVTEVEGTSFLTGIISWGEECAMKGKYGIYTKVSEYVNWIKNKTKLT
notes: also called K82N/N84S/R150Y/R170E/R233E/E240N
B2: FIXa-K247N/N249S/R318Y/R338E/T343R (enzyme)
chain 1: YNSGKLEEFVQGNLERECMEEKCSFEEAREVFENTERTTEFWKQYVDGDQCESNPCLNGGSCKDDINSYECWCPFGFEGKNCELDVTCNIKNGRCEQFCKNSADNKVVCSCTEGYRLAENQKSCEPAVPFPCGRVSVSQTSKLTR
chain 2: VVGGEDAKPGQFPWQVVLNGKVDAFCGGSIVNEKWIVTAAHCVETGVKITVVAGEHNIEETEHTEQNRSVIRIIPHHNYNAAINKYNHDIALLELDEPLVLNSYVTPICIADKEYTNIFLKFGSGYVSGWGRVFHKGYSALVLQYLRVPLVDRATCLESTKFRIYNNMFCAGFHEGGRDSCQGDSGGPHVTEVEGTSFLTGIISWGEECAMKGKYGIYTKVSRYVNWIKEKTKLT
notes: also called K82N/N84S/R150Y/R170E/T175R (chymotrypsin numbering)
B3: FIXa-R318Y/R338E/T343R (enzyme)
chain 1: YNSGKLEEFVQGNLERECMEEKCSFEEAREVFENTERTTEFWKQYVDGDQCESNPCLNGGSCKDDINSYECWCPFGFEGKNCELDVTCNIKNGRCEQFCKNSADNKVVCSCTEGYRLAENQKSCEPAVPFPCGRVSVSQTSKLTR
chain 2: VVGGEDAKPGQFPWQVVLNGKVDAFCGGSIVNEKWIVTAAHCVETGVKITVVAGEHNIEETEHTEQKRNVIRIIPHHNYNAAINKYNHDIALLELDEPLVLNSYVTPICIADKEYTNIFLKFGSGYVSGWGRVFHKGYSALVLQYLRVPLVDRATCLESTKFRIYNNMFCAGFHEGGRDSCQGDSGGPHVTEVEGTSFLTGIISWGEECAMKGKYGIYTKVSRYVNWIKEKTKLT
notes: also called R150Y/R170E/T175R (chymotrypsin numbering); CB2679d
B4: FIXa-K228N/K247N/N249S/R318Y/R338E/T343R/R403E/E410N (enzyme)
chain 1: YNSGKLEEFVQGNLERECMEEKCSFEEAREVFENTERTTEFWKQYVDGDQCESNPCLNGGSCKDDINSYECWCPFGFEGKNCELDVTCNIKNGRCEQFCKNSADNKVVCSCTEGYRLAENQKSCEPAVPFPCGRVSVSQTSKLTR
chain 2: VVGGEDAKPGQFPWQVVLNGKVDAFCGGSIVNEKWIVTAAHCVETGVNITVVAGEHNIEETEHTEQNRSVIRIIPHHNYNAAINKYNHDIALLELDEPLVLNSYVTPICIADKEYTNIFLKFGSGYVSGWGRVFHKGYSALVLQYLRVPLVDRATCLESTKFRIYNNMFCAGFHEGGRDSCQGDSGGPHVTEVEGTSFLTGIISWGEECAMKGKYGIYTKVSEYVNWIKNKTKLT
notes: also called K63N/K82N/N84S/R150Y/R170E/T175R/R233E/E240N (chymotrypsin numbering)
B5: FIXa variant D104N/K106S/Y155F/K247N/N249S/N260S (enzyme)
light: YNSGKLEEFVQGNLERECMEEKCSFEEAREVFENTERTTEFWKQYVDGDQCESNPCLNGGSCKDDINSYECWCPFGFEGKNCELDVTCNIKNGRCEQFCKNSANNSVVCSCTEGYRLAENQKSCEPAVPFPCGRVSVSQTSKLTR
heavy: VVGGEDAKPGQFPWQVVLNGKVDAFCGGSIVNEKWIVTAAHCVETGVKITVVAGEHNIEETEHTEQNRSVIRIIPHHNYSAAINKYNHDIALLELDEPLVLNSYVTPICIADKEYTNIFLKFGSGYVSGWGRVFHKGRSALVLQYLRVPLVDRATCLRSTKFTIYNNMFCAGFHEGGRDSCQGDSGGPHVTEVEGTSFLTGIISWGEECAMKGKYGIYTKVSRYVNWIKEKTKLT
B6: FIXa variant Y155F/K247N/N249S/R318Y/R338E/R403E/E410N (enzyme)
light: YNSGKLEEFVQGNLERECMEEKCSFEEAREVFENTERTTEFWKQYVDGDQCESNPCLNGGSCKDDINSYECWCPFGFEGKNCELDVTCNIKNGRCEQFCKNSADNKVVCSCTEGYRLAENQKSCEPAVPFPCGRVSVSQTSKLTR
heavy: VVGGEDAKPGQFPWQVVLNGKVDAFCGGSIVNEKWIVTAAHCVETGVKITVVAGEHNIEETEHTEQNRSVIRIIPHHNYNAAINKYNHDIALLELDEPLVLNSYVTPICIADKEYTNIFLKFGSGYVSGWGRVFHKGYSALVLQYLRVPLVDRATCLESTKFTIYNNMFCAGFHEGGRDSCQGDSGGPHVTEVEGTSFLTGIISWGEECAMKGKYGIYTKVSEYVNWIKNKTKLT

How the values were obtained:
[1] = molecular target: T1, Factor VIIIa (FVIIIa), from recombinant …; assay: apparent functional KD (KD-app): FX activation rate vs FVIIIa titration, fluorogenic Xase assay with PC/PS vesicles and Ca2+
Description: The activity of alpha-thrombin was then quenched by the addition of a highly specific thrombin inhibitor, hirudin, prior to initiating the assay.

[2] = molecular target: T2, Factor VIIIa (recombinant FVIII, …); assay: functional cofactor affinity KD-app: fluorogenic FX activation (Xase) assay, FVIIIa titrated, PC/PS vesicles, saturating FX
Protocol: Reactions were monitored in a SpectraMax fluorescence plate reader for 30 min at 37° C. A standard curve of free AMC served as the conversion factor for RFU to μM in the subsequent data analysis calculations using a dose range that covered 0 μM to 100 μM AMC.

Binder	Kd [1] [nM]	Kd [2] [nM]
B1	68.6	–
B2	–	14.7
B3	–	9.8
B4	–	29.1
B5	142	–
B6	45.8	–
